Assay [1] concerns the target T1, GR (Homo sapiens, UniProt P04150).
T1 sequence (P04150 1-777): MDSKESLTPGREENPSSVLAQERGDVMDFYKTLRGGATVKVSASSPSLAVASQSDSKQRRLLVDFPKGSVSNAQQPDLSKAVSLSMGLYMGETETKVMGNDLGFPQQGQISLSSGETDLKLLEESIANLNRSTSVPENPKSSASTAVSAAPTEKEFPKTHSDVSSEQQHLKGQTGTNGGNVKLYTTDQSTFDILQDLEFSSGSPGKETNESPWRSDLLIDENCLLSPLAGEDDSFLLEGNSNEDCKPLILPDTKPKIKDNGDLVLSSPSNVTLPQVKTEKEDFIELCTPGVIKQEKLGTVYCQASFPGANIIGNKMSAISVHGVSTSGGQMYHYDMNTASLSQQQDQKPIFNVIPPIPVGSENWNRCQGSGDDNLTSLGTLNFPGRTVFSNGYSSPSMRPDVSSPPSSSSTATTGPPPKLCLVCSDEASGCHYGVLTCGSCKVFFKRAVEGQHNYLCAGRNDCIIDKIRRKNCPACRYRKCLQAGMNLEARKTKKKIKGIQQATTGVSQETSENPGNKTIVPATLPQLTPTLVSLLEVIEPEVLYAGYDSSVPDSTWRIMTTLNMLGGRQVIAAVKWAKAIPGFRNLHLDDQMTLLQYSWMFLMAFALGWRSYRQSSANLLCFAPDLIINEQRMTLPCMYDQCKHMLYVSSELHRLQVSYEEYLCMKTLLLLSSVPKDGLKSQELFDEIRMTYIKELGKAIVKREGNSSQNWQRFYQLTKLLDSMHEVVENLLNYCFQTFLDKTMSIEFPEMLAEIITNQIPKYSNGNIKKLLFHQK
As to the kind of experiment: GR transcription activity, MMTV-CAT reporter (Example 1). It is filed as cell-based. Also noted: expressed in transfected cells; host or cells: DU145. To be noted: DU145 cells. On the procedure:
366. Human prostate cancer DU145 or PC3 cells, or human lung carcinoma cells NCI H1299 were grown in Dulbecco's minimal essential medium (DMEM) containing penicillin (25 U/ml), streptomycin (25˜g/ml), and 5% fetal calf serum (FCS). One hour before transfection, the medium was changed to DMEM with 5% charcoal-stripped FCS. Phenol red-free and serum-free media were used on the experiments employing E2 or TGF-β, respectively. A β-galactosidase expression plasmid, pCMV-β-gal, was used as an internal control for transfection efficiency.
367. Cells were transfected using the calcium phosphate technique (Yeh, et al. Molec. Endocrinol. 8:77-88, 1994). The medium was changed 24 hr posttransfection and the cells treated with either steroid hormones or hydroxyflutamide, and cultured for an additional 24 hr. Cells were harvested and assayed for CAT activity after the cell lysates were normalized by using β-galactosidaseas an internal control. Chloramphenicol acetyltransferase (CA) activity was visualized by PhosphorImager (Molecular Dynamics) and quantitated by ImageQuant software (Molecular Dynamics).

Assay [2] has as its system PSA. Nature of the assay: Western blot of endogenous PSA in stably transfected LNCaP cells. It is filed as cell-based, human. To be noted: stable LNCaP cells; +doxy; 1 nM DHT; vector alone without doxy = 100%. An excerpt:
14. […] (A) The effects of C′-ARA54 and mt-ARA54 on cell proliferation. […] Total cell number was counted by hemocytometer. Values represent the mean±SD of at least three determinations. (B) The effects of C′-ARA54 and mt-ARA54 on AR transcription activity. LNCaP cells stably transfected with pBIG2i (vector alone), pBIG2i-C′-ARA54, pBIG2i-mt-ARA54, or pBIG2i-fl-ARA54 were transiently transfected with MMTV-Luc. […] Values represent the mean±SD of at least three determinations. (C) The effects of C′-ARA54 and mt-ARA54 on PSA expression. […] The 33-kDa of protein was detected as indicated and quantitated by Collage Image Analysis software (Fotodyne). The normalized expression level in the first lane (vector alone without doxy treatment) was set as 100%. Values represent the mean±SD of three separate experiments.
395. […]

The source of these data is patent US20060270591A1, “Androgen receptor coregulators” (priority 2002, published 2006).

B1: ARA54: 54 kDa protein that interacts with AR in an androgen-dependent manner; AR coactivator (protein)
chain: MSSEDREAQEDELLALASIYDGDEFRKAESVQGGETRIYLDLPQNFKIFVSGNSNECLQNSGFEYTICFLPPLVLNFELPPDYPSSSPPSFTLSGKWLSPTQLSALCKHLDNLWEEHRGSVVLFAWMQFLKEETLAYLNIVSPFELKIGSQKKVQRRTAQASPNTELDFGGAAGSDVDQEEIVDERAVQDVESLSNLIQEILDFDQAQQIKCFNSKLFLCSICFCEKLGSECMYFLECRHVYCKACLKDYFEIQIRDGQVQCLNCPEPKCPSVATPGQVKELVEAELFARYDRLLLQSSLDLMADVVYCPRPCCQLPVMQEPGCTMGICSSCNFAFCTLCRLTYHGVSPCKVTAEKLMDLRNEYLQADEANKRLLDQRYGKRVIQKALEEMESKEWLEKNSKSCPCCGTPIEKLDGCNKMTCTGCMQYFCWICMGSLSRANPYKHFNDPGSPCFNRLFYAVDVDDDIWEDEVED
Regarding B1, the “effect on GR transcription activity” value in assay [1] was “less than 2 fold”.

B2: C′-ARA54: C-terminal region (amino acids 361-474) of ARA54 (protein)
chain: RNEYLQADEANKRLLDQRYGKRVIQKALEEMESKEWLEKNSKSCPCCGTPIEKLDGCNKMTCTGCMQYFCWICMGSLSRANPYKHFNDPGSPCFNRLFYAVDVDDDIWEDEVED
modifications: Homo sapien
notes: C-terminal region (amino acids 361-474) of ARA54
Regarding B2, the “endogenous PSA expression” value in assay [2] is 87%.
